Source: US9724381B2 (THE ADMINISTRATORS OF THE TULANE EDUCATIONAL FUND, priority 2009, dated 2017)
Where no end group is shown, it is not given here. [ ]: non-standard residue; d: D form. The star is where a group is joined. Desaminotyrosyl = O=C(CCc1ccc(O)cc1)*; d2Nal = N[C@H](Cc1ccc2ccccc2c1)C(=O)O; Cha = N[C@@H](CC1CCCCC1)C(=O)O; dCha = N[C@H](CC1CCCCC1)C(=O)O; Picolinoyl = O=C(c1ccccn1)*; Nle = CCCC[C@H](N)C(=O)O; dPal = not defined here; Aib = CC(C)(N)C(=O)O; iPr = CC(C)*

Columns and labels:
[1] = target: T1, Ghrelin/GHRP/GHS Receptor (Rattus norvegicus, UniProt O08725); experiment: In vitro GH release from cell culture of pituitary cells; type: cell-based; design: After dispersion, the cells were collected by centrifugation, wash with DMEM and placed into culture well; endogenous in cells; host or cells: dispersed primary rat anterior pituitary cells; settings: Table 8
T1 sequence (O08725 whole entry): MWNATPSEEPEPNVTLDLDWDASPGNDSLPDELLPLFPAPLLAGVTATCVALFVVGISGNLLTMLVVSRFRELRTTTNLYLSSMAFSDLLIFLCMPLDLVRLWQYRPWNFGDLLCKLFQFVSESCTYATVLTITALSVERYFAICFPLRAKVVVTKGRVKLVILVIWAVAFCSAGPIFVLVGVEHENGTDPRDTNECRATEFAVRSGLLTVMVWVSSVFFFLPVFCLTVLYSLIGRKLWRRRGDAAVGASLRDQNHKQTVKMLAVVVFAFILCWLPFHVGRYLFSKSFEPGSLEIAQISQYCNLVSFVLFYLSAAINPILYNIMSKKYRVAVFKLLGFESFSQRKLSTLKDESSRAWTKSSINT
Experimental: In vitro GH Release-Female rats of the CD-1 strain were housed in a constant temperature room at 24° C. with 14 h light and 10 h darkness. The rats were fed Purina Rat chow and water at libitum. All studies were started between 0800-1000 hours. Pituitaries of mature female Sprague Dawley rats were rapidly removed after decapitation, neurointermediate lobe discarded and then placed in a pH 7.4 buffer. The pituitaries were cut into ˜3-mm pieces and then transferred to a flask containing HEPS buffer with trypsin and incubated at 37° C. Cells were triturated several times during this period. After dispersion, the cells were collected by centrifugation, wash with DMEM and placed into culture well. Cell cultures were maintained for 4 days at 37° with 8% CO2 added to the incubator atmosphere. After 4 days in culture, cells were washed with lactated Ringer's solution adjusted to pH 7.2-7.4 and then vehicle, peptide alone or peptide plus stimulator was added to media. Incubation time was 60-120 minutes after which media was removed from each well for GH determination. The GH RIA reagents were distributed by the NIH. Control data was collected from cell cultures treated with only the corresponding vehicle in the absence of peptide or stimulator. Control stimulated data was collected from cell cultures treated with stimulator alone in the absence of any peptide.

[2] = target: T1, Ghrelin/GHRP/GHS Receptor; experiment: In vitro GH release from isolated pituitary glands, pituitary incubation method; type: cell-based; settings: Table 1
Experimental: Hormonal activities were obtained from in vitro studies using pituitaries of 20 day old CD-1 strain Sprague Dawley female rats. Two pituitaries were incubated for a total of 4-6 hours. Medium was removed each hour for RIA of GH level and fresh medium was added again. After two one hour preincubation periods (P1-P2), the vehicle/peptides were added to two one hour incubations (I3-I4). Peptide activity was calculated as the change in the hormonal level (delta) between I3+I4 and P2. For antagonist activity, the incubation was continued for 2 additional hours (I5-I6) where both the peptide and a stimulator of GH secretion was added and the antagonist activity was calculated as the change in the hormonal level (delta) between I5+I6 and P2. The peptides were assayed in triplicate and the hormone was assayed in duplicate. Each value recorded represents the mean of 6. The GH RIA reagents were distributed by the NIH. Control data was collected from isolated pituitary glands treated with only the corresponding vehicle in the absence of peptide or stimulator. Control stimulated data was collected from isolated pituitary glands treated with stimulator alone in the absence of any peptide.

[3] = peptide antagonist dosage 3 (head prints μg/i.v.)
[4] = peptide antagonist dosage 10 (head prints μg/i.v.)
[5] = peptide antagonist dosage 30 (head prints μg/i.v.)
[6] = peptide antagonist dosage 100 (head prints μg/i.v.)
[7] = peptide antagonist dosage 1 (head prints μg/i.v.)
[8] = peptide antagonist 10 μg/ml + stimulator His-DTrp-Ala-Trp-DPhe-Lys-NH2 10 ng/ml
[9] = peptide antagonist 30 μg/ml + stimulator His-DTrp-Ala-Trp-DPhe-Lys-NH2 10 ng/ml
[10] = peptide antagonist 3 μg/ml + stimulator His-DTrp-Ala-Trp-DPhe-Lys-NH2 10 ng/ml

| Substance | Unstimulated Basal GH release from cell cultures of pituitary cells [1, 3] [ng/mL] | Unstimulated Basal GH release from cell cultures of pituitary cells [1, 4] [ng/mL] | Unstimulated Basal GH release from cell cultures of pituitary cells [1, 5] [ng/mL] | other results |
| --- | --- | --- | --- | --- |
| Ac-DLys-Tyr-DTrp-DTrp-Phe-NH2 (Ac-[dK]Y[dW][dW]F-NH2; SMILES CC(=O)N[C@H](CCCCN)C(=O)N[C@@H](Cc1ccc(O)cc1)C(=O)N[C@H](Cc1c[nH]c2ccccc12)C(=O)N[C@H](Cc1c[nH]c2ccccc12)C(=O)N[C@@H](Cc1ccccc1)C(N)=O) | 105 ± 8 | 950 ± 91 | 782 ± 56 | Unstimulated Basal GH release from cell cultures of pituitary cells [1, 6]: 756 ± 1 ng/mL |
| Ac-DβNal-DTrp-NH2 | 1264 ± 2 | 980 ± 72 | 699 ± 7 |  |
| Ac-DβNal-PicLys-ILys-DPhe-NH2 (Ac-[d2Nal]K(Picolinoyl)K(iPr)[dF]-NH2; SMILES CC(=O)N[C@H](Cc1ccc2ccccc2c1)C(=O)N[C@@H](CCCCNC(=O)c1ccccn1)C(=O)N[C@@H](CCCCNC(C)C)C(=O)N[C@H](Cc1ccccc1)C(N)=O) [Ac-DβNal-PlcLys-ILys-DPhe-NH2] | 1013 ± 207 | 976 ± 13 | 928 ± 16 |  |
| Arg-DTrp-Leu-Tyr-Trp-Pro(cyclic Arg-Pro) | 1480 ± 19 | 802 ± 26 | 601 ± 16 | Unstimulated Basal GH release from cell cultures of pituitary cells [1, 6]: 509 ± 49 ng/mL |
| DAla-DcyclohexylAla-Ala-Ala-Phe-DPhe-Nle-NH2 ([dA][dCha]AAF[dF][Nle]-NH2; N-terminus assumed; SMILES CCCC[C@H](NC(=O)[C@@H](Cc1ccccc1)NC(=O)[C@H](Cc1ccccc1)NC(=O)[C@H](C)NC(=O)[C@H](C)NC(=O)[C@@H](CC1CCCCC1)NC(=O)[C@@H](C)N)C(N)=O) | 177 ± 44 | 271 ± 38 | 376 ± 28 | Unstimulated Basal GH release from cell cultures of pituitary cells [1, 7]: 286 ± 75 ng/mL |
| DLys-Tyr-DTrp-DTrp-Phe-NH2 ([dK]Y[dW][dW]F-NH2; N-terminus assumed; SMILES NCCCC[C@@H](N)C(=O)N[C@@H](Cc1ccc(O)cc1)C(=O)N[C@H](Cc1c[nH]c2ccccc12)C(=O)N[C@H](Cc1c[nH]c2ccccc12)C(=O)N[C@@H](Cc1ccccc1)C(N)=O) | 1175 ± 77 | 1129 ± 6 | 744 ± 44 | Unstimulated Basal GH release from cell cultures of pituitary cells [1, 7]: 1451 ± 19 ng/mL |
| DPal-Phe-DTrp-Phe-Met-NH2 ([dPal]F[dW]FM-NH2; reading uncertain; also: printed as DPal-Phe-DTrp-Phe-Met-NH2) | 1081 ± 50 | 997 ± 30 | 425 ± 25 |  |
| DPal-Trp-DPhe-Phe-Met-NH2 ([dPal]W[dF]FM-NH2; reading uncertain; also: printed as DPal-Trp-DPhe-Phe-Met-NH2) | 1105 ± 18 | 891 ± 4 | 567 ± 24 |  |
| DPhe-Ala-Phe-DPal-NH2 ([dF]AF[dPal]-NH2; reading uncertain; also: printed as DPhe-Ala-Phe-DPal-NH2) | 170 ± 19 | 181 ± 31 | 161 ± 20 | Unstimulated Basal GH release from cell cultures of pituitary cells [1, 6]: 146 ± 21 ng/mL |
| DPhe-Ala-Phe-DPhe-Lys-NH2 ([dF]AF[dF]K-NH2; N-terminus assumed; SMILES C[C@H](NC(=O)[C@H](N)Cc1ccccc1)C(=O)N[C@@H](Cc1ccccc1)C(=O)N[C@H](Cc1ccccc1)C(=O)N[C@@H](CCCCN)C(N)=O) |  | 267 ± 27 | 276 ± 65 | Unstimulated Basal GH release from cell cultures of pituitary cells [1, 6]: 360 ± 84 ng/mL |
| DPhe-Trp-DPhe-Phe-Met-NH2 ([dF]W[dF]FM-NH2; N-terminus assumed; SMILES CSCC[C@H](NC(=O)[C@H](Cc1ccccc1)NC(=O)[C@@H](Cc1ccccc1)NC(=O)[C@H](Cc1c[nH]c2ccccc12)NC(=O)[C@H](N)Cc1ccccc1)C(N)=O) | 1146 ± 34 | 1086 ± 32 | 871 ± 89 |  |
| DeaminoTyr-DTrp-Ser-Trp-DPhe-Lys-NH2 ([Desaminotyrosyl][dW]SW[dF]K-NH2; SMILES NCCCC[C@H](NC(=O)[C@@H](Cc1ccccc1)NC(=O)[C@H](Cc1c[nH]c2ccccc12)NC(=O)[C@H](CO)NC(=O)[C@@H](Cc1c[nH]c2ccccc12)NC(=O)CCc1ccc(O)cc1)C(N)=O) |  |  |  | Change in stimulated GH release versus preincubation (delta) [2, 8]: 3325 ± 391 ng/mL; Change in stimulated GH release versus preincubation (delta) [2, 9]: 3810 ± 621 ng/mL |
| DesaminoTyr-DTrp-Ala-Trp-DPhe-NH2 ([Desaminotyrosyl][dW]AW[dF]-NH2; SMILES C[C@H](NC(=O)[C@@H](Cc1c[nH]c2ccccc12)NC(=O)CCc1ccc(O)cc1)C(=O)N[C@@H](Cc1c[nH]c2ccccc12)C(=O)N[C@H](Cc1ccccc1)C(N)=O) |  |  |  | Change in stimulated GH release versus preincubation (delta) [2, 10]: 1302 ± 269 ng/mL; Change in stimulated GH release versus preincubation (delta) [2, 9]: -959 ± 75 ng/mL |
| DesaminoTyr-DTrp-DLys-Trp-DPhe-NH2 ([Desaminotyrosyl][dW][dK]W[dF]-NH2; SMILES NCCCC[C@@H](NC(=O)[C@@H](Cc1c[nH]c2ccccc12)NC(=O)CCc1ccc(O)cc1)C(=O)N[C@@H](Cc1c[nH]c2ccccc12)C(=O)N[C@H](Cc1ccccc1)C(N)=O) |  |  |  | Change in stimulated GH release versus preincubation (delta) ([2]; peptide antagonist 0.1 μg/ml + stimulator His-DTrp-Ala-Trp-DPhe-Lys-NH2 10 ng/ml): 4297 ± 1061 ng/mL; Change in stimulated GH release versus preincubation (delta) ([2]; peptide antagonist 0.3 μg/ml + stimulator His-DTrp-Ala-Trp-DPhe-Lys-NH2 10 ng/ml): 2404 ± 802 ng/mL; Change in stimulated GH release versus preincubation (delta) ([2]; peptide antagonist 1 μg/ml + stimulator His-DTrp-Ala-Trp-DPhe-Lys-NH2 10 ng/ml): 688 ± 327 ng/mL; Change in stimulated GH release versus preincubation (delta) [2, 10]: -466 ± 432 ng/mL; Change in stimulated GH release versus preincubation (delta) [2, 8]: -1068 ± 318 ng/mL; Change in stimulated GH release versus preincubation (delta) [2, 9]: -576 ± 110 ng/mL |
| His-DTrp-DTrp-Lys-NH2 (H[dW][dW]K-NH2; N-terminus assumed; SMILES NCCCC[C@H](NC(=O)[C@@H](Cc1c[nH]c2ccccc12)NC(=O)[C@@H](Cc1c[nH]c2ccccc12)NC(=O)[C@@H](N)Cc1c[nH]cn1)C(N)=O) | 1124 ± 37 | 749 ± 10 | 615 ± 41 |  |
| αAib-DTrp-DAla-cyclohexylAla-NH2 ([Aib][dW][dA][Cha]-NH2; N-terminus assumed; SMILES C[C@@H](NC(=O)[C@@H](Cc1c[nH]c2ccccc12)NC(=O)C(C)(C)N)C(=O)N[C@@H](CC1CCCCC1)C(N)=O) | 1103 ± 18 | 994 ± 22 | 704 ± 115 | Unstimulated Basal GH release from cell cultures of pituitary cells [1, 7]: 1086 ± 52 ng/mL |
| αAib-DTrp-DcyclohexylAla-NH2 ([Aib]-[dW]-[dCha]-NH2; N-terminus assumed; SMILES CC(C)(N)C(=O)N[C@H](Cc1c[nH]c2ccccc12)C(=O)N[C@H](CC1CCCCC1)C(N)=O) | 826 ± 32 | 602 ± 53 | 492 ± 11 | Unstimulated Basal GH release from cell cultures of pituitary cells [1, 7]: 980 ± 44 ng/mL |
